Here are results for eleven molecules from patent publication US20240270821A1, “GIP/GLP1/GCG TRI-RECEPTOR AGONISTS AND USES THEREOF” (priority 2023, published 2024).

What all share (assay): cell-based or functional assay
One assay has as its target hGLP-1R (Homo sapiens, UniProt P43220).
In assay [1] the target is human glucagon receptor (human) (UniProt P47871).
In assay [2] the target is T1, human GIP receptor (human) (UniProt P48546).
T1 sequence (looked up): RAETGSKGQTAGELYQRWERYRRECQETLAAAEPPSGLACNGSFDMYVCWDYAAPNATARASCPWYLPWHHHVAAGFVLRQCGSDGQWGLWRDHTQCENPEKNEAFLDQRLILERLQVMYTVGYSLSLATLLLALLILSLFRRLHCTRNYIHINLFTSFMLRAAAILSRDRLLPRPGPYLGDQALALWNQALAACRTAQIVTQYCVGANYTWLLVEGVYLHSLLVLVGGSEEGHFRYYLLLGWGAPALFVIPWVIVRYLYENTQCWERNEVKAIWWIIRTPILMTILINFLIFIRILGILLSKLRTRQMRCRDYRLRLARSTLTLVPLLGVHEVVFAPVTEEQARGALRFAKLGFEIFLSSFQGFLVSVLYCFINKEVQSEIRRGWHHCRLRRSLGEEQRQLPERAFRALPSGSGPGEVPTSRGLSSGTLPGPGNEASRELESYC

Sequence of human glucagon receptor (human) (P47871 26-477): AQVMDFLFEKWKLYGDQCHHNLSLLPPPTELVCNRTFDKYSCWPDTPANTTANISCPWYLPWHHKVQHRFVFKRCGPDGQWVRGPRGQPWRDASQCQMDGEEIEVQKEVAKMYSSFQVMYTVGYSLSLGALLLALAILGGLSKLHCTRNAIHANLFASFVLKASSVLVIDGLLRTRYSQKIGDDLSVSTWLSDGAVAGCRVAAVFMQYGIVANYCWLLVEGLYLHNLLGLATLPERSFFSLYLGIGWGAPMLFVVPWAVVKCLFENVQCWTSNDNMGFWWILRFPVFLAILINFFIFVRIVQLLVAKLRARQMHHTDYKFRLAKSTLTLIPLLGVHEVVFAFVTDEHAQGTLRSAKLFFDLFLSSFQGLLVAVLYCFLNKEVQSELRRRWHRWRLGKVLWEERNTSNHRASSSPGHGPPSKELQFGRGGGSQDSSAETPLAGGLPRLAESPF
Sequence of hGLP-1R (P43220 24-463): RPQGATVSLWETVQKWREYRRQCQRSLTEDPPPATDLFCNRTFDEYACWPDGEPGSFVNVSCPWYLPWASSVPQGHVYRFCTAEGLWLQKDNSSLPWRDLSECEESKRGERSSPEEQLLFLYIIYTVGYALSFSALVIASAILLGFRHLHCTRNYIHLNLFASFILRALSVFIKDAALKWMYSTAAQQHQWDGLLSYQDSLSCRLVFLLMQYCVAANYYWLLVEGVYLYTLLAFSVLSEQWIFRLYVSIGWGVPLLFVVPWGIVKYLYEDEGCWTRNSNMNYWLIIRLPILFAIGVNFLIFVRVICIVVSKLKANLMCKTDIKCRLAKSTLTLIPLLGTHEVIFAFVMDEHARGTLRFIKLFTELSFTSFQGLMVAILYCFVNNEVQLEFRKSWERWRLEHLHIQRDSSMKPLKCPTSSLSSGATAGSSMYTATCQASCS

B1: Example 1169 (peptide)
chain: YXQGTXTSDXXIXLDXKAQXEFIEXLIEGGPSSGEPPPSGGGE
modifications: non-natural residues; acylated Lys C18 diacid; C-term amide; synthetic construct; SITE 2: note = 2-Aminoisobutyric Acid; SITE 6: note = alpha-methyl-L-phenylalanine; SITE 10: note = 3-(4-Pyridyl)-L-alanine; SITE 11: note = alpha-methyl-L-serine; SITE 13: note = alpha-methyl-leucine; SITE 16: note = L-ornithine; SITE 17: note = Lysine is chemically modified th
On to B1, for which the Relative cAMP EC50 in the assay with hGLP-1R was determined as 0.613 nM; in assay [1], 2.43 nM; in assay [2] it was 0.011 nM. Further, the values for the cAMP Rel EC50 (in the presence of 1% HSA) (with hGLP-1R; in assay [1]; in assay [2]) were 80 nM, 304 nM and 1.18 nM, respectively.

B2: Example 1175 (peptide)
chain: YXQGTXTSDXXIXLDXKAQXEFIEXLIEGGPSSGEPPPSGGGE
modifications: Aib, αMe residues, 4Pal, Orn, Me4Pal; acylated K; amide; synthetic construct; SITE 2: note = 2-Aminoisobutyric Acid; SITE 6: note = alpha-methyl-L-phenylalanine; SITE 10: note = 3-(4-Pyridyl)-L-alanine; SITE 11: note = alpha-methyl-L-serine; SITE 13: note = alpha-methyl-leucine; SITE 16: note = L-ornithine; SITE 17: note = Lysine is chemically modified th
Regarding B2, the Relative cAMP EC50 worked out at 0.572 nM in the assay with hGLP-1R, 2.08 nM in assay [1] and 0.00962 nM in assay [2]. Also, the cAMP Rel EC50 (in the presence of 1% HSA) was found to be 60.7 nM in the assay with hGLP-1R, 282 nM in assay [1] and 0.768 nM in assay [2].

B3: Example 1188 (peptide)
chain: YXQGTFTSDXXQXLDXKAQXQFIQXLIEGGPSSGEPPPSGGGE
modifications: not fully specified; non-natural residues, lipidated Lys, C-terminal amide; synthetic construct; SITE 2: note = 2-Aminoisobutyric Acid; SITE 10: note = 3-(4-Pyridyl)-L-alanine; SITE 11: note = alpha-methyl-L-serine; SITE 13: note = alpha-methyl-leucine; SITE 16: note = L-ornithine; SITE 17: note = Lysine is chemically modified through conjugation of the epsilon-amino group
For the molecule B3, the Relative cAMP EC50 with hGLP-1R came to 1.01 nM; in assay [1], 1.16 nM; in assay [2], 0.0914 nM. Further, the values for the cAMP Rel EC50 (in the presence of 1% HSA) (with hGLP-1R; in assay [1]; in assay [2]) were 77.1 nM, 130 nM and 7.02 nM, respectively.

B4: Example 1174 (peptide)
chain: YXQGTXTSDXXIXLDXKAQXEFIEXLIEGGPSSGAPPPSGGGE
modifications: non-natural residues (Aib, αMeF, 4Pal, Orn, Me4Pal); lipidated Lys; C-amide; synthetic construct; SITE 2: note = 2-Aminoisobutyric Acid; SITE 6: note = alpha-methyl-L-phenylalanine; SITE 10: note = 3-(4-Pyridyl)-L-alanine; SITE 11: note = alpha-methyl-L-serine; SITE 13: note = alpha-methyl-leucine; SITE 16: note = L-ornithine; SITE 17: note = Lysine is chemically modified th
As to B4, the Relative cAMP EC50 was determined as 0.454 nM in the assay with hGLP-1R, 2.58 nM in assay [1] and 0.00896 nM in assay [2]. Also, the cAMP Rel EC50 (in the presence of 1% HSA) was 60.2 nM in the assay with hGLP-1R, 347 nM in assay [1] and 0.707 nM in assay [2].

B5: Example 1184 (peptide)
chain: YXQGTFTSDXXQXLDXKAQXQFIEXLIEXGPSSGEPPPSGGGE
modifications: non-natural residues; Lys acylated with γGlu-C18 diacid; C-terminal amide; synthetic construct; SITE 2: note = 2-Aminoisobutyric Acid; SITE 10: note = 3-(4-Pyridyl)-L-alanine; SITE 11: note = alpha-methyl-L-serine; SITE 13: note = alpha-methyl-leucine; SITE 16: note = L-ornithine; SITE 17: note = Lysine is chemically modified through conjugation of the epsilon-amino group
Consider B5, for which the values for the Relative cAMP EC50 (in the assay with hGLP-1R; in assay [1]; in assay [2]) were 1.18 nM, 1.5 nM and 0.071 nM, respectively. Also, the cAMP Rel EC50 (in the presence of 1% HSA) with hGLP-1R worked out at 179 nM; in assay [1], 295 nM; in assay [2] it was 8.39 nM.

B6: Example 1183 (peptide)
chain: YXQGTFTSDXXQXLDXKAQXQFIQXLIEXGPSSGEPPPSGGGE
modifications: non-natural residues; lipidated Lys; C-terminal amide; synthetic construct; SITE 2: note = 2-Aminoisobutyric Acid; SITE 10: note = 3-(4-Pyridyl)-L-alanine; SITE 11: note = alpha-methyl-L-serine; SITE 13: note = alpha-methyl-leucine; SITE 16: note = L-ornithine; SITE 17: note = Lysine is chemically modified through conjugation of the epsilon-amino group
In the case of B6, the Relative cAMP EC50 amounted to 0.769 nM in the assay with hGLP-1R, 1.38 nM in assay [1] and 0.0484 nM in assay [2]. For the same molecule, the cAMP Rel EC50 (in the presence of 1% HSA) was determined as 53.6 nM with hGLP-1R, 127 nM in assay [1] and 3.16 nM in assay [2].

B7: Example 1180 (peptide)
chain: YXQGTXTSDXXIXLDXKAQXEFIEXLIEGGPSSGAPPPSGGGE
modifications: Non-natural residues; K acylated AEEA-(γGlu)2-C18 diacid; C-terminal amide; synthetic construct; SITE 2: note = 2-Aminoisobutyric Acid; SITE 6: note = alpha-methyl-2-fluoro-L-phenylalanine; SITE 10: note = 3-(4-Pyridyl)-L-alanine; SITE 11: note = alpha-methyl-L-serine; SITE 13: note = alpha-methyl-leucine; SITE 16: note = L-ornithine; SITE 17: note = Lysine is chemically mo
Turning to B7, the Relative cAMP EC50 is 0.445 nM in the assay with hGLP-1R, 3.16 nM in assay [1] and 0.00602 nM in assay [2]. In addition, the cAMP Rel EC50 (in the presence of 1% HSA) with hGLP-1R turned out to be 35.6 nM; in assay [1] it was 205 nM; in assay [2] it was 0.341 nM.

B8: Example 1181 (peptide)
chain: YXQGTXTSDXXIXLDXKAQXEFIEXLIEGGPSSGEPPPSGGGE
modifications: non-natural residues, AEEA-(γGlu)2-C18 diacid acyl on K, C-terminal amide; synthetic construct; SITE 2: note = 2-Aminoisobutyric Acid; SITE 6: note = alpha-methyl-2-fluoro-L-phenylalanine; SITE 10: note = 3-(4-Pyridyl)-L-alanine; SITE 11: note = alpha-methyl-L-serine; SITE 13: note = alpha-methyl-leucine; SITE 16: note = L-ornithine; SITE 17: note = Lysine is chemically mo
For B8, the Relative cAMP EC50 in the assay with hGLP-1R was 0.664 nM; in assay [1], 3.34 nM; in assay [2] it was 0.0115 nM. In addition, the cAMP Rel EC50 (in the presence of 1% HSA) turned out to be 48.2 nM with hGLP-1R, 203 nM in assay [1] and 0.666 nM in assay [2].

B9: Example 1187 (peptide)
chain: YXQGTFTSDXXQXLDXKAQXQFIEXLIEXGPSSGAPPPSGGGE
modifications: not fully specified; acylated lysine γGlu-C18 diacid; non-natural residues; C-terminal amide; synthetic construct; SITE 2: note = 2-Aminoisobutyric Acid; SITE 10: note = 3-(4-Pyridyl)-L-alanine; SITE 11: note = alpha-methyl-L-serine; SITE 13: note = alpha-methyl-leucine; SITE 16: note = L-ornithine; SITE 17: note = Lysine is chemically modified through conjugation of the epsilon-amino group
As to B9, the Relative cAMP EC50 with hGLP-1R was 1.06 nM; in assay [1] it was 1.81 nM; in assay [2] it was 0.0648 nM. The results for the cAMP Rel EC50 (in the presence of 1% HSA) (with hGLP-1R; in assay [1]; in assay [2]) were 154 nM, 370 nM and 7.11 nM, respectively.

B10: Example 1182 (peptide)
chain: YXQGTFTSDXXQXLDXKAQXQFIEXLIAXGPSSGEPPPSGGGE
modifications: non-natural residues; lysine acylated with C18 diacid; C-terminal amide; synthetic construct; SITE 2: note = 2-Aminoisobutyric Acid; SITE 10: note = 3-(4-Pyridyl)-L-alanine; SITE 11: note = alpha-methyl-L-serine; SITE 13: note = alpha-methyl-leucine; SITE 16: note = L-ornithine; SITE 17: note = Lysine is chemically modified through conjugation of the epsilon-amino group
As to B10, the figures for the Relative cAMP EC50 (with hGLP-1R; in assay [1]; in assay [2]) were 0.797 nM, 1.24 nM and 0.0316 nM, respectively. Moreover, the values for the cAMP Rel EC50 (in the presence of 1% HSA) (in the assay with hGLP-1R; in assay [1]; in assay [2]) were 80.4 nM, 172 nM and 2.73 nM, respectively.

B11: Example 1172 (peptide)
chain: YXQGTXTSDXXIXLDXKAQXEFIEXLIEGGPSSGAPPPSGSE
modifications: Aib, αMe residues, 4Pal, Orn, Me4Pal; acylated K; amide; synthetic construct; SITE 2: note = 2-Aminoisobutyric Acid; SITE 6: note = alpha-methyl-L-phenylalanine; SITE 10: note = 3-(4-Pyridyl)-L-alanine; SITE 11: note = alpha-methyl-L-serine; SITE 13: note = alpha-methyl-leucine; SITE 16: note = L-ornithine; SITE 17: note = Lysine is chemically modified th
For B11, the figures for the Relative cAMP EC50 (with hGLP-1R; in assay [1]; in assay [2]) were 0.44 nM, 2.52 nM and 0.00886 nM, respectively. Also, the cAMP Rel EC50 (in the presence of 1% HSA) amounted to 45.5 nM with hGLP-1R, 303 nM in assay [1] and 0.7 nM in assay [2].
